Data published in US20250263500A1 (BEIJING KANGHONG BIOMEDICAL, published 2025).

T1: CD24 (human, UniProt P25063 27-59)
T1 chain (looked up): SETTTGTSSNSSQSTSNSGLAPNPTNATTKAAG


Key:
CD24 [1] = biological target: T1, CD24; experiment: cell-based or functional assay
CD24 [2] = biological target: T1, CD24; experiment: cell-based or functional assay

Binder	Phagocytosis rate % (A549 tumor cells by human PBMC-derived M2 macrophages, antibody 5 µg/ml) (CD24 [1])	Phagocytosis rate (%) (MCF-7 tumor cells by human PBMC-derived M2 macrophages, antibody 5 µg/ml) (CD24 [2])
KH01 (antibody, mouse IgG2a, kappa, V domains shown) VH: DVQLQESGPDLVKPSQSLSLTCTVTGHSITRGYSWHWIRQFPGNKLEWMGYIHHRGTTNYNPSLKSRISFTRDTSKNQFFLQLNSLTTEDTATYFCSRGTNSAFDYWGQGTTLTVSS VL: DIQMTQTTSSLSASLGDRVTISCRASQDISNYLNWYQQKPDGTVKLLIYYTSRLHSGVPSRFSGSGSGTDYSLTISNLEQEDIATYFCQQGNTLPHTFGGGTKLEIKR	11.8%	6.2%
KH33 (antibody, mouse IgG2a, kappa, V domains shown) VH: DVQLQESGPDLVKPSQSLSLTCTVTGHSITRGYSWHWIRQFPGNKLEWMGYIHHRGTTNYNPSLKSRISFTRDTSKNQFFLQLNSLTTEDTATYFCSRGTNSAFDYWGQGTTLTVSS VL: QIVLTQSPAIMSASPGEKVTMTCSASSSISYMHWYQQKPGTSPKRWIYDTSKLASGVPARFSGSGSGTSYSLTISSMEAEDAATYYCHQRSSYPCTFGGGTKLEIKR	18.3%	
KH21 (antibody, mouse IgG2a, kappa, V domains shown) VH: DVQLQESGPDLVKPSQSLSLTCTVTGHSITRGYSWHWIRQFPGNKLEWMGYIHHRGTTNYNPSLKSRISFTRDTSKNQFFLQLNSLTTEDTATYFCSRGTNSAFDYWGQGTTLTVSS VL: DIVMSQSPSSLTVSVGEKITMSCKSSQSLLYSSDQKNYLAWYQQNPGQSPKLLIYWASTKASGVPDRFTGSGSGTDFTLTISSVKAEDLAVYYCQQYYIYPLTFGSGTKLEIKR	10.2%	
KH05 (antibody, mouse IgG2b, kappa, V domains shown) VH: DVQLQESGPDLVKPSQSLSLTCTVTGHSITNGYSWHWIRQFPGNKLEWMGYIHHSGSTNYNPSLKSRISFTRDTSKNQFFLQLNSLTTEDTATYYCLRGTDRSFDYWGQGTTLTVSS VL: DIVMSQSPSSLVVSVGEKISMSCKSSQSLLYSNNQKNYLAWYQQIPGQSPKLLIYWASTRESGVPDRFTGSGSGTDFTLTISSVKAEDLAVYYCQQYYIYPLTFGSGTKLEIKR	10.4%	3.2%
KH29 (antibody, mouse IgG2b, kappa, V domains shown) VH: DVQLQESGPDLVKPSQSLSLTCTVTGHSITRGYSWHWIRQFPGNKLEWMGYIHHRGTTNYNPSLKNRISFTRDTSKNQFFLQLNSLTTEDTATYFCSRGTNSAFDYWGQGTTLTVSS VL: DIVMSQSPSSLAVSVGEKVTLNCKSSQSLLYSKNQKNYSAWYQQKPGQSPKLLIYWASTRESGVPDRFTGSGSGTDFTLTISSVKAEDLAVYYCQQYYIYPLTFGAGTKLELKR	8.95%	
KH14 (antibody, mouse IgG2b, kappa, V domains shown) VH: DVQLQESGPDLVKPSQSLSLTCTVTGHSITNGYSWHWIRQFPGNKLEWMGYIHHSGSTNYNPSLKSRISFTRDTSKNQFFLQLNSLTTEDTATYYCLRGTDRSFDYWGQGTTLTVSS VL: DIVMSQSPSSLAVSVGENITMTCKSSQSLLYSNNQKNYLTWYQQNPGQSPKLLIYWASTRESGVPDRFTGSGSGTDFTLTISSVKAEDLAVYYCQQYYIYPFTFGSGTKLEIKR	11.2%	3.4%
KH19 (antibody, mouse IgG2b, kappa, V domains shown) VH: DVQLQESGPDLVKPSQSLSLTCTVTGHSITNGYSWHWIRQFPGNKLEWMGYIHHSGSTNYNPSLKSRISFTRDTSKNQFFLQLNSLTTEDTATYYCLRGTDRSFDYWGQGTTLTVSS VL: DIVMSQSPSSLAVSVGEKVTVSCKSSQSLLYSSDQKNYLTWYQQKPGQSPKLLIYWASTRESGVPDRFTGGGSGTDFTLTISSVRAEDLAVYYCQQYFIYPFTFGSGTKLEIKR	10.3%	
KH10 (antibody, mouse IgG2a, kappa, V domains shown) VH: DVQLQESGPDLVKPSQSLSLTCTVTGHSITRGYSWHWIRQFPGNKLEWMGYIHHRGSTNYNPSLKSRISFTRDTSKNQFFLQLNSLTTEDTATYFCSRGTNSAFDYWGQGTTLTVSS VL: not shown	12.1%	
KH25 (antibody, mouse IgG2b, kappa, V domains shown) VH: DVQLQESGPDLVKPSQSLSLTCTVTGHSITRGYSWHWIRQFPGNKLEWMGYIHHRGSTNYNPSLKSRISFTRDTSKNQFFLQLNSLTTEDTATYFCSRGTNSAFDYWGQGTTLTVSS VL: DIVMSQSPSSLVVSVGEKISMSCKSSQSLLYSNNQKNYLAWYQQIPGQSPKLLIYWASTRESGVPDRFTGSGSGTDFTLTISSVKAEDLAVYYCQQYYIYPLTFGSGTKLEIKR	11%	6.5%
KH16 (antibody, mouse IgG2a, kappa, V domains shown) VH: DVQLQESGPDLVKPSQSLSLTCTVTGYSITSGYTWHWIRQFPGNKLEWMGYIQYSGSTNYNPSLKSRISFTRDTSKNQFFLQLNSVTTEDTATYYCARGTTGGLDYWGQGTTLTVSS VL: DIVMSQSPSSLTVSVGEKITMSCKSSQSLLYSSDQKNYLAWYQQNPGQSPKLLIYWASTKASGVPDRFTGSGSGTDFTLTISSVKAEDLAVYYCQQYYIYPLTFGSGTKLEIKR	12.3%	6.8%
KH27 (antibody, mouse IgG2b, kappa, V domains shown) VH: DVQLQESGPDLVKPSQSLSLTCTVTGYSITRGYTWHWIRQFPGNKLEWMGYIQFSGSTKYNPSLKSRFSITRDTSKNQFFLQLNSVTTEDTATYYCARGTTTALDYWGQGTSVTVSS VL: DIVMSQSPSSLAVSIGEKVTMNCQSSQSLLYSSNQKNYLVWYQQKPGQSPKLLIHWASTRESGVPDRFTGSGSGTDFTLTISSVKAEDLAVYYCQQYYIYPFTFGSGTKLEIKR	10.6%	
KH02 (antibody, mouse IgG2a, kappa, V domains shown) VH: DVQLQESGPDLVKPSHSLSLTCTVTGYSITRGYSWHWIRQFPGNKLEWMGYIHYSGSTNYNPSLKSRISFTRDTSKNQFFLNLTSLTSEDTATYYCSRGSTWAFDHWGQGTILTVSS VL: DIVMSQSPSSLAVSVGEKITMSCKSSQSLLYSNNQKNYLAWYQQIPGQSPKLLIYLASTRESGVPDRFTGSGSGTDFTLTISSVKAEDLAVYYCQQYFIYPMSFGSGTKLEIKR	10.3%	3%

Continued, values first:

Phagocytosis rate % (A549 tumor cells by human PBMC-derived M2 macrophages, antibody 5 µg/ml) (CD24 [1])	Phagocytosis rate (%) (MCF-7 tumor cells by human PBMC-derived M2 macrophages, antibody 5 µg/ml) (CD24 [2])	Binder
10.1%		KH07 (antibody, mouse IgG2b, kappa, V domains shown) VH: DVQLQESGPDLEKPSQSLSLTCTVTGYSITRGYSWHWIRQFPGNKLEWMGYIHYSGSTKYNPSLKSRVSFTRDTSKNQFFLQLNSLSPEDTATYYCSRGSDRAFDYWGQGTTLTVSS VL: DIVMSQSPSSLAVSIGEKVTMNCQSSQSLLYSNNQKNYLVWYQQKPGQSPKLLIHWASTRESGVPDRFTGSGSGTDFTLTISSVKAEDLAVYYCQQYYIYPFTFGSGTKLEIKR
11.9%	3.6%	KH03 (antibody, mouse IgG2a, kappa, V domains shown) VH: DVQLQESGPDLVKPSQSLSLTCTVTGHSITRGYSWHWIRQFPGNKLEWMGYIHHRGSTNYNPSLKSRISFTRDTSKNQFFLQLNSLTTEDTATYFCSRGTNSAFDYWGQGTTLTVSS VL: DIVMSQSPSSLTVSVGEKITMSCKSSQSLLYSSDQKNYLAWYQQNPGQSPKLLIYWASTRASGVPDRFTGSGSGTDFTLTISSVKAEDLAIYYCQQYYIYPLTFGSGTKLEIKR
12.8%		KH04 (antibody, mouse IgG2a, kappa, V domains shown) VH: DVQLQESGPDLVKPSQSLSLTCTVTGHSITRGYSWHWIRQFPGNKLEWMGYIHHRGSTNYNPSLKSRISFTRDTSKNQFFLQLNSLTTEDTATYFCLRGTNSAFDYWGQGTTLTVSS VL: DIVMSQSPSSLTVSVGEKITMSCKSSQSLLYSSDQKNYLAWYQQNPGQSPKLLIYWASTKASGVPDRFTGSGSGTDFTLTISSVKAEDLAVYYCQQYYIYPLTFGSGTKLEIKR
11.1%		KH12 (antibody, mouse IgG2a, kappa, V domains shown) VH: DVQLQESGPDLVKPSHSFSLTCTVTGYSITRGYSWHWIRQFPGNKLEWMGYIHYSGNTNYNPSLKSRFSFTRDTSKNQFFLNLTSLTSEDTATYYCSRGSTWAFDHWGQGTILTVSS VL: DIVMSQSPSSLTVSVGEKVTMSCKSSQSLLYSSDQKNYLTWYQQKPGQSPKLLIYWASTRYSGVPDRFTGSGSGTDFTLTISSVKAEDLAVYYCQQYYIYPFTFGSGTKLEIKR
10.9%	4.3%	KH06 (antibody, V domains shown) VH: DVQLQESGPDLVNPSQSLSLTCTVTGYSISRGYSWHWLRRFPGNKLEWMGFIHYSGTTNYNPSLKSRISFTRDTSKNQFFLQLNSLTTEDTATYYCLRGTDRSFDYWGQGTTLTVSS VL: DIVMSQSPSSLVVSVGEKISMSCKSSQSLLYSNNQKNYLAWYQQIPGQSPKLLIYWASTRESGVPDRFTGSGSGTDFTLTISSVKAEDLAVYYCQQYYIYPLTFGSGTKLEIKR
